Assay results: the DeepSol protein solubility set

Assay: soluble on expression in E. coli; label from the status in PepcDB or PDB records

Sequence	soluble on expression in E. coli
MGSDKIHHHHHHMTALFQQLPSVDKILKTPQGLQLITEFGHTAVVATCRELLTQARQFIKKNNQLPEYFSNFDRTFLEIHSHLQKQNQVQIKAVHNLTGTVLHTNLGRALWSEAAQQAALSAMQKNVSLEYDLDEGKRSHRDNYISELLCKLTGAEAACIVNNNAAAVLLMLATFAQGKEVIISRGELIEIGGAFRIPDIMEQAGCHLVEVGTTNRTHLKDYRNAITENTAFLMKVHSSNYQICGFTSSVSEEELTELGQEMNVPVVTDLGSGALVDLSQYGLPKEPTVQEKIAQGVDLVSFSGDKLLGGVQAGIIVGKKEWIEQLQAHPLKRVLRCDKVILAGLEATLRLYLNPEKLTEKLPTLRLLTQPLKQLKINAMRLKERLESRLNSQFELQIEASQAQIGSGSQPMERIPSVAVTIAEKTNAKLSALSARFKQLSQPIIGRMENGKIWLDLRSLADIETLLNTLDEL	not soluble
MGSDKIHHHHHHMTLSKERKLHIPFERDGDLMDIGSYPHWLQDVVGTVRAARDRVRFHEVFSLMRDGRLAPRQLAAFFVNGWPVVEQFPKYMSMNLLKANGTNSSGEEKARRYLIRNIRVELNHVEHWVNWAEASGVPRRQLTDGDSPPAALALSHWCWKSSSADTLAASIAATNYAIEGVTGEWSADLCRSDVYEMGFPEAVRGRAMRWLRLHSSYDDKHPWEALDIVATILGQSPSTEQVRDVAAGIERSFRYFEMSLSCCLDA	not soluble
MDNLNVFANEDNQVNDVKPPPPPPRVCARCDSDNTKFCYYNNYCEFQPRYFCKNCRRYWTHGGALRNIPIGGSSRAKRARVNQPSVARMVSVETQRGNNQPFSNVQENVHLVGSFGASSSSSVGAVGNLFGSLYDIHGGMVTNLHPTRTVRPNHRLAFHDGSFEQDYYDVGSDNLLVNQQVGGYGYHMNPVDQFKWNQSFNNTMNMNYNNDSTSGSSRGSDMNVNHDNKKIRYRNSVIMHPCHLEKDGP	not soluble
MGSDKIHHHHHHMGHKVTGSDANVYPPMSTQLEQQGIELIQGFDPAQLGKEGDNQPDLVVIGNAMSRGNPCVEAVLNRGIKYTSGPQFLSEHILQDRWVLAVAGTHGKTSTSSMLAWVLEYCGYEPGFLIGGVPQNFGVSARLGNSVFFVVEADEYDSAFFDKRSKFVHYHPRTLVINNLEFDHADIFADLAAIQRQFNHVIRTVPGEGKVIWPSDVEAVQQVIDMGCWSEQEIYSKATSLTTGLAEHSVNVSANQGEPNAWQPRTIADDGHEFEVLFKGESQGIVNWSLIGQHNIENAIMAIAAARHVGVAPSHAIEALAQFSPPKRRLELLATVNGVSVYDDFAHHPTAIATTLQGLRAKVASSDNANGNIIVVLEPRSNTMKSGVHKDTLANSMVLADVGYLYQADNIDWDIKASMANAPIPVTVFNNIEDIINAVAATANQGDTVVIMSNGGFNGIHQKMIKALA	not soluble
MGNAGESKKSNSDSAKGEEKASGSLTISGSSAMQPLVLAAAEKFMEENPDADIQVQAGGSGTGLSQVSEGAVQIGNSDVFAEEKEGIDAKALVDHQVAVVGMAAAVNPDAGVKDISKDELKKIFTGKIKNWKELGGKDQKITLVNRPDSSGTRATFVKYALDGAEPAEGITEDSSNTVKKIIADTPGAIGYLAFSYLTDDKVTALSIDGVKPEAKNVATGEYPIWAYQHSYTKGEATGLAKEFLDYLKSEDIQKSIVTDQGYIPVTDMKVTRDANGKQSLEHHHHHH	not soluble
MELSADYLREKLRQDLEAEHVEVEDTTLNRCATSFRVLVVSAKFEGKPLLQRHRLVNECLAEELPHIHAFEQKTLTPEQWTRQRRE	soluble
MHATSRVAWFWRPSCQSFIRKMPCRPIVLSGPSGGGKSTILTRAMQEYPNSFAFSVSHTTRQPRAGEEHGKHYYFTEKEKMQEMIKNNEFLEFATFSGNTYGTSKKTVLEIENSGKICVLDIELQGVRNIKNSHLDARYILIRAPSIKLLEERLRARGTETEESLSKRLQHASEDLVEIEKNPTLFDKVIVNDDLERAYKEFVDLLRDDLEKTSKK	not soluble
MNTVADVMAGNDGEYCFHARTGKYGVYLKQDWRNEYNVGDIAVYEDSKPGTLNDFLIAPDEGDLKPDVVKRFEEMVAQAQQSAGAAAGNAQQTAQDVAAAATARDDAQRFAEKARQDATVTAEDRKATAEDVTSTGANAAAAGQSAQDAAGYARAAEQAKNDIDAALTGTLKTANHLSETAAAGEKAQQKSRDNLGLKSAATMEAQSDIYDRTKGRLAIPGAFGFGCAFLPEDVIRFDTKSDFLAWVRNALPGEYSVAGPYGIIIPDTRFEGVLSIRWTDARPETTEPRYRAKSLTFYGINGPIYHTRYCYWPISRLTGWVKINITTEDIIYRIVASSVRNRWGDPDIGGLIIAAYQGEADGDKVIRLVRGQSYRGSRLGPVGISVPGTPTGTYIVSPQFFITGCSEHSLPGSYCALSGVPDAHVSGAMPGLFIRTSRGMHRGN	not soluble
MAIEIPNMIQIGSTGRNSGKTTLAEALIKQYQEVYPIYGLKIITISGQRGVCQRGTKGCGICTSITAGYELVEEQETIGNKDTMKLLAAGCQKVFLLKVFQENLAEAIQQFLKAVPAQALIICESNSLRNVVQPGLFLMMNNQNRQKESAKKVIDKADFCLLSAEIPKKLRIYYQGEQLQVSLKRGNKKECVH	not soluble
RKRYYNTIEDMKGKIRVYCRIRPLNEKESSEREKQMLTTVDEFTVEHPWKDDKRKQHIYDRVFDMRASQDDIFEDTKYLVQSAVDGYNVCIFAYGQTGSGKTFTIYGHESNPGLTPRATKELFNILKRDSKRFSFSLKAYMVELYQDTLVDLLLPKSARRLKLEIKKDSKGMVFVENVTTIPISTLEELRMILERGSERRHVSGTNMNEESSRSHLILSVVIESIDLQTQSAARGKLSFVDLAGSERVKKSGSAGNQLKEAQSINKSLSALGDVIGALSSGNQHIPYRNHKLTMLMSDSLGGNAKTLMFVNVSPAESNLDETYNSLLYASRVRTIVNDPSKHISSKEMVRLKKLVAYWKEQAGKKGEEEDLVDIEEDRTRKDEADS	soluble
MGSDKIHHHHHHMLVVPAIDLFRGKVARMIKGRKENTIFYEKDPVELVEKLIEEGFTLIHVVDLSNAIENSGENLPVLEKLSEFAEHIQIGGGIRSLDYAEKLRKLGYRRQIVSSKVLEDPSFLKSLREIDVEPVFSLDTRGGRVAFKGWLAEEEIDPVSLLKRLKEYGLEEIVHTEIEKDGTLQEHDFSLTKKIAIEAEVKVLAAGGISSENSLKTAQKVHTETNGLLKGVIVGRAFLEGILTVEVMKRYAR	not soluble
PHANGLEQISGGDTNMFRLAKEQGYETYFYSAQAENEMAILNLIGKKWIDHLIQPTQLGYGNGDNMPDEKLLPLFDKINLQQGKHFIVLHQRGSHAPYGALLQPQDKVFGEADIVDKYDNTIHKTDQMIQTVFEQLQKQPDGNWLFAYTSDHGQYVRQDIYNQGTVQPDSYLVPLVLYSPDKAVQQAANQAFAPCEIAFHQQLSTFLIHTLGYDMPVSGCREGSVTGNLITGDAGSLNIRDGKAEYVYPQ	not soluble
MGSDKIHHHHHHMPTDHSFQIKPSQAAPLTSQQLYRKCDLKELSTDCQSTAELTPLDDIVGQERAQQAVEFAMGIKEKGYNIYAIGQNGLGKRTMMLRYLNRHEPSEHSLYDWCYVVNFDDTRSPKVLKLAAGSGLEFKKAIEKLMLKLVKALPLAFDNEMYYARAEKLKSQLAQKQEAALTELSEEAKQKGISLSLTLQGDYQMIALNGEEPHDEYSFTALTETERNQFESNINGLEVKLRNIIRQNTEWEEEFSDTQQEHDEQVAKDVLIHFFKPLKDKYKHQPEVRAFLTGMQADILDNLDIFLEESEEQLALAYASLEKKMPRRYQVNVLVCQGAQKFPIVVEESPSYHSLFGYVENATFRGTVFTDFSLIRSGSLHKANGGVLLMDAVKVLERPYVWDGLKRALRSRKLDLSSLEREVSLSGTISLAPEPIPLDVKIILFGDHETYQLYNTMIQILVNYLELPLILKM	not soluble
MSLSAFLPSLDTPVALLDMPRMQRNIQRMQQRMNELGVRLRPHVKTSKSLPVIQAQMAAGARGVTVSTLKEAEHCFAEGISDVFYAVAIAPGKLDQALKLRRIGCRLSILTDSVVAAQAIVAFGQQHDEQFQVWIEIDCDGHRSGLTVEDNALIEVARTLVEGGMQLRGVMTHAGSSYDLDTPEALQALAEQERLLCVSAAERIRQAGLPCPEVSIGSTPTALSAQGLAGVTEVRAGVYVFFDLVMHNIGVCGADEGHHHHHH	not soluble
